Consider two molecules from patent publication US20190112367A1.

Assay [1] addresses human IL-32gamma (R&D) (human) (UniProt P24001). As to the kind of experiment: ELISA, antigen coated at 1 µg/ml, serial dilutions of MAB.
Assay [2] shares this target. As to the kind of experiment: cell-based or functional assay.
The target in assay [3] is IL-32 (isotype not stated, analyte of the SPR experiment) (UniProt P24001). As to the kind of experiment: SPR, ProteOn XPR36, IL-32 injected over the antibody.

B1: anti-IL-32 antibody 26A6 (IgG1, lambda) (antibody, V domains shown)
VH: QVQLVESGGGVVQPGRSLRLSCVASGLTFRTYGMHWVRQAPGNGLEWVAIIWHDGNKKYFADSVKGRFTISRDNSKNSLYLQMNSLRVEDTAVYYCAREMNGIDVWGQGTTVTVSS
VL: SYELTQPPSVSVSPGQTARITCSGDALPETYVYWYQQKSGQAPVKLIYEDSERPSGIPERFSGSSSGTLATLTISGAHVEDEADYYCYSTDSSGIGVFGGGTKVTVLS
Broadly, the EC50 is the concentration at which the effect is half-maximal. For the molecule B1, the EC50 in assay [1] is 1.33 µg/mL.

B2: anti-IL-32 antibody 2C2 (IgG3, lambda) (antibody, V domains shown)
VH: QLRVQESGPGLLKPAETLSLTCSVSSGSVSNSRYYWAWIRQSPGKGLEWIGSMYYRGRSYYNPSLKSRLTISIDTSKNQFSLKLTSLTAADTAVYYCAAAVYHDLDYWGQGTLVTVSS
VL: QSVLTQPPSVSAAPGQKVTISCSGSGSSIGNNYVSWYQQLPGAAPKLLIYDNTKRPSGIPDRFSGSKSGTSATLAITGLQPGDAADYYCGTWDSSFSVFWVFGGGTKLTVLS
What is called Kd is the free concentration of one partner at which half of the binding sites on the other are occupied at equilibrium, for simple one-to-one binding. A high value points to weaker binding. In turn, B2 registered an IC 50 (neutralization of IL-32γ activity) in assay [2] of 0.3 µg/mL. Besides, in assay [3], the Kd turned out to be 4 nM. For the same molecule, the EC50 in assay [1] amounted to 0.526 µg/mL.
